{"source": "IntAct's records for PubMed 23893131", "parents": {"B1": {"name": "Glia maturation factor gamma (Mus musculus), Q9ERL7 (parent)", "chain": "MSDSLVVCEVDPELKETLRKFRFRKETNNAAIIMKVDKDRQMVVLEDELQNISPEELKLELPERQPRFVVYSYKYVHDDGRVSYPLCFIFSSPVGCKPEQQMMYAGSKNRLVQTAELTKVFEIRTTDDLTETWLKEKLAFFR"}}}
{"variants_of": "B1", "conditions": "with arpc2_bovin ARPC2, Q3MHR7"}
{"variant": "R124E", "effect of a mutation on the interaction": "decreasing interaction strength"}
{"variant": "M102A", "effect of a mutation on the interaction": "decreasing interaction strength"}
{"variant": "D128K", "effect of a mutation on the interaction": "decreasing interaction strength"}
